Where no end group is shown, it is not given here.

As a reminder, the Kd is the concentration at which binding is half-saturated. A higher Kd goes with lower affinity.

This assay deals with PSMA (Homo sapiens, UniProt Q04609). Briefly: electrochemical impedance spectroscopy.

For SECVEVFQNSCDW (cysteine pairing not given here; also: displayed on M13 phage) [phage-2 (phage-displayed peptide 2)], the Kd was 54 nM.

(Values after PMC3683571 (2013).)
